The values that follow come from US9127260B2.

Test [1] has as its target T1, synthetic phytase Fus5#2 (mature) (synthetic fusion of Hafnia sp. LU11047 phytase and Yersinia mollaretii ATCC 43969 phytase fragments).
T1 sequence: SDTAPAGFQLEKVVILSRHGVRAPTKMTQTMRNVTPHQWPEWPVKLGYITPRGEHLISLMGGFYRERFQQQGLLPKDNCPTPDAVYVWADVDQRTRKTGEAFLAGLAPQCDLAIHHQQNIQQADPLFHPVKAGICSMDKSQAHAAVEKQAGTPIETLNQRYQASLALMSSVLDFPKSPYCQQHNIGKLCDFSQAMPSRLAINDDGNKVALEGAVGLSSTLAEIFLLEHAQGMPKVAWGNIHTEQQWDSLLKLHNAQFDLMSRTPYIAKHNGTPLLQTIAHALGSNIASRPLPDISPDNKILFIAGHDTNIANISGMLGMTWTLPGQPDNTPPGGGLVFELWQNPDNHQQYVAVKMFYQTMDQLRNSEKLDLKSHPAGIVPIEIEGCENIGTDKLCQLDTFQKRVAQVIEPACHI

Test [2] addresses Natuphos (Natuphos 10000L, BASF), commercial phytase.

For “pepsin (Sigma P-7000, 445 U/mg) (from UniProt P00791) (enzyme)”, the values for the Stability to pepsin (residual phytase activity after 30 min at 37 C with 10 mg/ml pepsin, pH 2, relative to a pH 5.5 reference) in test [1] and in test [2] were 1% and 20%, respectively.
